Results as given in the supplement of paper PMC5998384.

Columns and labels:
[1] = tested on: HeLa Kyoto; experiment: solubility in G1/S (NP-40 vs SDS abundance) (log2 ratio); higher = more soluble; conditions: cell cycle stage: G1/S
[2] = tested on: HeLa Kyoto; experiment: melting temperature (median over replicates), in situ; higher = more thermally stable
[3] = tested on: HeLa Kyoto; experiment: solubility change mitosis vs G1/S (difference of NP-40 vs SDS log2 ratios) (log2 ratio difference); higher = more soluble in mitosis
[4] = tested on: HeLa Kyoto; experiment: thermal stability score vs G1/S (z-score of summed log2 fold changes over temperatures); higher = more thermally stable than in G1/S
[5] = cell cycle stage: early G1 (4.5 h after nocodazole release)
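Wherever melting temperature (median over replicates), in situ is given: HeLa Kyoto cells synchronized by double thymidine or nocodazole block, proteins quantified by TMT10plex mass spectrometry, three independent biological replicates.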
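Wherever solubility change mitosis vs G1/S (difference of NP-40 vs SDS log2 ratios) is given: synchronized HeLa Kyoto cells (double thymidine block for G1/S, nocodazole release for mitosis), protein amounts in NP-40 versus SDS lysates quantified by mass spectrometry, three biological replicates.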
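Wherever solubility in G1/S (NP-40 vs SDS abundance) is given: HeLa Kyoto cells arrested at G1/S by double thymidine block, proteins quantified by TMT10plex mass spectrometry in mild NP-40 versus SDS extracts, three biological replicates.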
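Wherever thermal stability score vs G1/S (z-score of summed log2 fold changes over temperatures) is given: synchronized HeLa Kyoto cells, proteins quantified by TMT10plex mass spectrometry, three biological replicates, mitosis taken 0.5 h after nocodazole release, G1/S directly after double thymidine block.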

PRRC2A, sequence (chain, as listed by the source): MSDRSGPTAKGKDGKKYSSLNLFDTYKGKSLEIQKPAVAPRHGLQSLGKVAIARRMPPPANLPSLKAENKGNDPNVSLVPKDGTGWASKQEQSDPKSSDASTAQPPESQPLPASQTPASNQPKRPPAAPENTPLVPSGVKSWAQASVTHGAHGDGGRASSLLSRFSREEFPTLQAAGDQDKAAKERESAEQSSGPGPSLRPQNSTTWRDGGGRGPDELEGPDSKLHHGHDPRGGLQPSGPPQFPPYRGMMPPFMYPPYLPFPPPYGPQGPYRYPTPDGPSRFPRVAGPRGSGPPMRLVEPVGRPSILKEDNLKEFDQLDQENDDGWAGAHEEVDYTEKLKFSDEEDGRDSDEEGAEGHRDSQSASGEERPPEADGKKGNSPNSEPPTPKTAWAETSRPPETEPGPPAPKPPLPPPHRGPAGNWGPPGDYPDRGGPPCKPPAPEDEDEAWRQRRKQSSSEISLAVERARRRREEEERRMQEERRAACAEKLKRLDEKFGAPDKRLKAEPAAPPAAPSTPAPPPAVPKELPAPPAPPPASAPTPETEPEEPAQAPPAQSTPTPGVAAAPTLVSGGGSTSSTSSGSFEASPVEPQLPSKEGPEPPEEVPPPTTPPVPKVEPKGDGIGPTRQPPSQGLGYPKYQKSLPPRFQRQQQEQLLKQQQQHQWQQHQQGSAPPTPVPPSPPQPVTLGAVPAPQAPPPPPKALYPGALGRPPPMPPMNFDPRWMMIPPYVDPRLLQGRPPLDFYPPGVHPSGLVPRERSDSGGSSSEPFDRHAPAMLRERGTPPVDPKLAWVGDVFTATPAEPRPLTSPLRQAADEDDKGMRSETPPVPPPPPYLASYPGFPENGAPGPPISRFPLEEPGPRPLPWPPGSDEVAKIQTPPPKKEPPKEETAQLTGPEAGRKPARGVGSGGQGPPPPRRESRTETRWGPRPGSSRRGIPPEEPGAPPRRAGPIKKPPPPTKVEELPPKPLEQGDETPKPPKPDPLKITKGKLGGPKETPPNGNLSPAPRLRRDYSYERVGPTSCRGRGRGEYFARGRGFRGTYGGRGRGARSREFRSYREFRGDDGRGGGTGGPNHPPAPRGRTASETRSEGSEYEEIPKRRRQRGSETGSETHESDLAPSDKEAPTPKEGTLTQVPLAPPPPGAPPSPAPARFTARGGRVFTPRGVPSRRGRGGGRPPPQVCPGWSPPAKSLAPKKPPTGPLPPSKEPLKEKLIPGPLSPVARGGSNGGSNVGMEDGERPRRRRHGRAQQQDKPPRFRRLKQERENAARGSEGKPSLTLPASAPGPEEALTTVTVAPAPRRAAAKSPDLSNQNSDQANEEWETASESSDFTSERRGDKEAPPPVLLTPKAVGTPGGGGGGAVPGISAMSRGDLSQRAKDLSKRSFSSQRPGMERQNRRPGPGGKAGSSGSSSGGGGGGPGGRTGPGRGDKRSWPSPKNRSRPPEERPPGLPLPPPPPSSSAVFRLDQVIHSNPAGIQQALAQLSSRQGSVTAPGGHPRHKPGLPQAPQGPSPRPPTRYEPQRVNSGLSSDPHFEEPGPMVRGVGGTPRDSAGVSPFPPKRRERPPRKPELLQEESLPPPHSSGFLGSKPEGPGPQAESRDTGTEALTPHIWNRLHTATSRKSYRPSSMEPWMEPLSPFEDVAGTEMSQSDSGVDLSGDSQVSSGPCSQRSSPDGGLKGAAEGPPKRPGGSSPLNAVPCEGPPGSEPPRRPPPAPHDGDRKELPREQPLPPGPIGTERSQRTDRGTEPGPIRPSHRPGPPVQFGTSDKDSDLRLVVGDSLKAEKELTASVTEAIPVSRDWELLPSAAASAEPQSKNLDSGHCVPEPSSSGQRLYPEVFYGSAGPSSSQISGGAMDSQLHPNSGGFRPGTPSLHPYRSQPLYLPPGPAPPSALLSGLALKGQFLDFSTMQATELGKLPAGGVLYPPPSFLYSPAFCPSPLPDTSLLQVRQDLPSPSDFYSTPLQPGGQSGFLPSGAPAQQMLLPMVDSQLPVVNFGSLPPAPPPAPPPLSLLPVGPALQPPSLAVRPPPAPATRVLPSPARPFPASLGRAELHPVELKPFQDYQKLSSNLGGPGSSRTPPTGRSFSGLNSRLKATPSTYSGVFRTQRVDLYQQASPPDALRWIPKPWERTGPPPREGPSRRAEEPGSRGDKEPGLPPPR

Substance	solubility in G1/S (log2) [1]	melting temperature ([2]; cell cycle stage: G1/S) [°C]	melting temperature ([2]; cell cycle stage: mitosis) [°C]	solubility change mitosis (log2) [3]	thermal stability score [4, 5]	thermal stability score ([4]; cell cycle stage: mitosis)
MGYFRCARAGSFGRRRKMEPSTAARAWALFWLLLPLLGAVCASGPRTLVLLDNLNVRETHSLFFRSLKDRGFELTFKTADDPSLSLIKYGEFLYDNLIIFSPSVEDFGGNINVETISAFIDGGGSVLVAASSDIGDPLRELGSECGIEFDEEKTAVIDHHNYDISDLGQHTLIVADTENLLKAPTIVGKSSLNPILFRGVGMVADPDNPLVLDILTGSSTSYSFFPDKPITQYPHAVGKNTLLIAGLQARNNARVIFSGSLDFFSDSFFNSAVQKAAPGSQRYSQTGNYELAVALSRWVFKEEGVLRVGPVSHHRVGETAPPNAYTVTDLVEYSIVIQQLSNGKWVPFDGDDIQLEFVRIDPFVRTFLKKKGGKYSVQFKLPDVYGVFQFKVDYNRLGYTHLYSSTQVSVRPLQHTQYERFIPSAYPYYASAFSMMLGLFIFSIVFLHMKEKEKSD [DDOST]	-0.0357	54.1	54.2	-0.163	2.5	2.41
MAPSTPLLTVRGSEGLYMVNGPPHFTESTVFPRESGKNCKVCIFSKDGTLFAWGNGEKVNIISVTNKGLLHSFDLLKAVCLEFSPKNTVLATWQPYTTSKDGTAGIPNLQLYDVKTGTCLKSFIQKKMQNWCPSWSEDETLCARNVNNEVHFFENNNFNTIANKLHLQKINDFVLSPGPQPYKVAVYVPGSKGAPSFVRLYQYPNFAGPHAALANKSFFKADKVTMLWNKKATAVLVIASTDVDKTGASYYGEQTLHYIATNGESAVVQLPKNGPIYDVVWNSSSTEFCAVYGFMPAKATIFNLKCDPVFDFGTGPRNAAYYSPHGHILVLAGFGNLRGQMEVWDVKNYKLISKPVASDSTYFAWCPDGEHILTATCAPRLRVNNGYKIWHYTGSILHKYDVPSNAELWQVSWQPFLDGIFPAKTITYQAVPSEVPNEEPKVATAYRPPALRNKPITNSKLHEEEPPQNMKPQSGNDKPLSKTALKNQRKHEAKKAAKQEARSDKSPDLAPTPAPQSTPRNTVSQSISGDPEIDKKIKNLKKKLKAIEQLKEQAATGKQLEKNQLEKIQKETALLQELEDLELGI [EIF2A]	0.224	52.1	51.7	-0.121	-0.606	-1.22
XRN1	-0.345	49	48.5	-0.0622	0.741	0.939
MVQLYNLHPFGSQQVVPCKLEPDRFCGGGRDALFVAAGCKVEAFAVAGQELCQPRCAFSTLGRVLRLAYSEAGDYLVAIEEKNKATFLRAYVNWRNKRTENSRVCIRMIGHNVEGPFSKAFRDQMYIIEMPLSEAPLCISCCPVKGDLLVGCTNKLVLFSLKYQIINEEFSLLDFERSLIIHIDNITPVEVSFCVGYVAVMSDLEVLIVKLESGPKNGERVHHHPHKTNNRIRRTEEGISNEISQLESDDFVICQKPLELLGEKSEQSGLSVTLESTGLADEKRKYSHFQHLLYRRFAPDISSYVLSDDIKLHSLQLLPIYQTGSLTSDGKNLSQEKELLSLFCFFSLPHVGYLYMVVKSVELMSVYQYPEKSQQAVLTPQFLHVITSNNLQCFTVRCSAAAAREEDPYMDTTLKACPPVSMDVCALRIQLFIGLKAICHFKNHIILLTKAEPEAIPERRQSPKRLLSRKDTSVKIKIPPVAEAGWNLYIVNTISPVQLYKEMVDYSNTYKTVKTQSCIHLLSEAHLLVRAALMDASQLEPGEKAELLEAFKESCGHLGDCYSRLDSQHSHLTLPYYKMSGLSMAEVLARTDWTVEDGLQKYERGLIFYINHSLYENLDEELNEELAAKVVQMFYVAEPKQVPHILCSPSMKNINPLTAMSYLRKLDTSGFSSILVTLTKAAVALKMGDLDMHRNEMKSHSEMKLVCGFILEPRLLIQQRKGQIVPTELALHLKETQPGLLVASVLGLQKNNKIGIEEADSFFKVLCAKDEDTIPQLLVDFWEAQLVACLPDVVLQELFFKLTSQYIWRLSKRQPPDTTPLRTSEDLINACSHYGLIYPWVHVVISSDSLADKNYTEDLSKLQSLICGPSFDIASIIPFLEPLSEDTIAGLSVHVLCRTRLKEYEQCIDILLERCPEAVIPYANHELKEENRTLWWKKLLPELCQRIKCGGEKYQLYLSSLKETLSIVAVELELKDFMNVLPEDGTATFFLPYLLYCSRKKPLT [HPS3]	-0.0533	51.4	50.6	-0.103	0.612	0.736
MNRGFSRKSHTFLPKIFFRKMSSSGAKDKPELQFPFLQDEDTVATLLECKTLFILRGLPGSGKSTLARVIVDKYRDGTKMVSADAYKITPGARGAFSEEYKRLDEDLAAYCRRRDIRILVLDDTNHERERLEQLFEMADQYQYQVVLVEPKTAWRLDCAQLKEKNQWQLSADDLKKLKPGLEKDFLPLYFGWFLTKKSSETLRKAGQVFLEELGNHKAFKKELRQFVPGDEPREKMDLVTYFGKRPPGVLHCTTKFCDYGKAPGAEEYAQQDVLKKSYSKAFTLTISALFVTPKTTGARVELSEQQLQLWPSDVDKLSPTDNLPRGSRAHITLGCAADVEAVQTGLDLLEILRQEKGGSRGEEVGELSRGKLYSLGNGRWMLTLAKNMEVRAIFTGYYGKGKPVPTQGSRKGGALQSCTII [CNP]	0.107	50.6	50.3	-0.00285	1.08	0.579
PRRC2A	-0.105	53.7	55.1	0.0463	0.422	0.00992
MYHNSSQKRHWTFSSEEQLARLRADANRKFRCKAVANGKVLPNDPVFLEPHEEMTLCKYYEKRLLEFCSVFKPAMPRSVVGTACMYFKRFYLNNSVMEYHPRIIMLTCAFLACKVDEFNVSSPQFVGNLRESPLGQEKALEQILEYELLLIQQLNFHLIVHNPYRPFEGFLIDLKTRYPILENPEILRKTADDFLNRIALTDAYLLYTPSQIALTAILSSASRAGITMESYLSESLMLKENRTCLSQLLDIMKSMRNLVKKYEPPRSEEVAVLKQKLERCHSAELALNVITKKRKGYEDDDYVSKKSKHEEEEWTDDDLVESL [CCNH]	0.259	51.1	52.2	-0.195	0.868	1.73
MVSWMISRAVVLVFGMLYPAYYSYKAVKTKNVKEYVRWMMYWIVFALYTVIETVADQTVAWFPLYYELKIAFVIWLLSPYTKGASLIYRKFLHPLLSSKEREIDDYIVQAKERGYETMVNFGRQGLNLAATAAVTAAVKSQGAITERLRSFSMHDLTTIQGDEPVGQRPYQPLPEAKKKSKPAPSESAGYGIPLKDGDEKTDEEAEGPYSDNEMLTHKGLRRSQSMKSVKTTKGRKEVRYGSLKYKVKKRPQVYF [REEP3]	-0.258	52.8	54.9	-0.0257	-1.24	-0.732
MAAGKSGGSAGEITFLEALARSESKRDGGFKNNWSFDHEEESEGDTDKDGTNLLSVDEDEDSETSKGKKLNRRSEIVANSSGEFILKTYVRRNKSESFKTLKGNPIGLNMLSNNKKLSENTQNTSLCSGTVVHGRRFHHAHAQIPVVKTAAQSSLDRKERKEYPPHVQKVEINPVRLSRLQGVERIMKKTEESESQVEPEIKRKVQQKRHCSTYQPTPPLSPASKKCLTHLEDLQRNCRQAITLNESTGPLLRTSIHQNSGGQKSQNTGLTTKKFYGNNVEKVPIDIIVNCDDSKHTYLQTNGKVILPGAKIPKITNLKERKTSLSDLNDPIILSSDDDDDNDRTNRRESISPQPADSACSSPAPSTGKVEAALNENTCRAERELRSIPEDSELNTVTLPRKARMKDQFGNSIINTPLKRRKVFSQEPPDALALSCQSSFDSVILNCRSIRVGTLFRLLIEPVIFCLDFIKIQLDEPDHDPVEIILNTSDLTKCEWCNVRKLPVVFLQAIPAVYQKLSIQLQMNKEDKVWNDCKGVNKLTNLEEQYIILIFQNGLDPPANMVFESIINEIGIKNNISNFFAKIPFEEANGRLVACTRTYEESIKGSCGQKENKIKTVSFESKIQLRSKQEFQFFDEEEETGENHTIFIGPVEKLIVYPPPPAKGGISVTNEDLHCLNEGEFLNDVIIDFYLKYLVLEKLKKEDADRIHIFSSFFYKRLNQRERRNHETTNLSIQQKRHGRVKTWTRHVDIFEKDFIFVPLNEAAHWFLAVVCFPGLEKPKYEPNPHYHENAVIQKCSTVEDSCISSSASEMESCSQNSSAKPVIKKMLNKKHCIAVIDSNPGQEESDPRYKRNICSVKYSVKKINHTASENEEFNKGESTSQKVADRTKSENGLQNESLSSTHHTDGLSKIRLNYSDESPEAGKMLEDELVDFSEDQDNQDDSSDDGFLADDNCSSEIGQWHLKPTICKQPCILLMDSLRGPSRSNVVKILREYLEVEWEVKKGSKRSFSKDVMKGSNPKVPQQNNFSDCGVYVLQYVESFFENPILSFELPMNLANWFPPPRMRTKREEIRNIILKLQEDQSKEKRKHKDTYSTEAPLGEGTEQYVNSISD [SENP6]	-0.261	51.8	52.5	0.144	-0.65	0.269
MAPVEHVVADAGAFLRHAALQDIGKNIYTIREVVTEIRDKATRRRLAVLPYELRFKEPLPEYVRLVTEFSKKTGDYPSLSATDIQVLALTYQLEAEFVGVSHLKQEPQKVKVSSSIQHPETPLHISGFHLPYKPKPPQETEKGHSACEPENLEFSSFMFWRNPLPNIDHELQELLIDRGEDVPSEEEEEEENGFEDRKDDSDDDGGGWITPSNIKQIQQELEQCDVPEDVRVGCLTTDFAMQNVLLQMGLHVLAVNGMLIREARSYILRCHGCFKTTSDMSRVFCSHCGNKTLKKVSVTVSDDGTLHMHFSRNPKVLNPRGLRYSLPTPKGGKYAINPHLTEDQRFPQLRLSQKARQKTNVFAPDYIAGVSPFVENDISSRSATLQVRDSTLGAGRRRLNPNASRKKFVKKR [NOB1]	-0.457	50.3	49.8	0.197	0.938	0.387
MSGLSGPPARRGPFPLALLLLFLLGPRLVLAISFHLPINSRKCLREEIHKDLLVTGAYEISDQSGGAGGLRSHLKITDSAGHILYSKEDATKGKFAFTTEDYDMFEVCFESKGTGRIPDQLVILDMKHGVEAKNYEEIAKVEKLKPLEVELRRLEDLSESIVNDFAYMKKREEEMRDTNESTNTRVLYFSIFSMFCLIGLATWQVFYLRRFFKAKKLIE [TMED10]	0.076	55.3	55.8	-0.0383	0.651	-0.174
MADREGGCAAGRGRELEPELEPGPGPGSALEPGEEFEIVDRSQLPGPGDLRSATRPRAAEGWSAPILTLARRATGNLSASCGSALRAAAGLGGGDSGDGTARAASKCQMMEERANLMHMMKLSIKVLLQSALSLGRSLDADHAPLQQFFVVMEHCLKHGLKVKKSFIGQNKSFFGPLELVEKLCPEASDIATSVRNLPELKTAVGRGRAWLYLALMQKKLADYLKVLIDNKHLLSEFYEPEALMMEEEGMVIVGLLVGLNVLDANLCLKGEDLDSQVGVIDFSLYLKDVQDLDGGKEHERITDVLDQKNYVEELNRHLSCTVGDLQTKIDGLEKTNSKLQEELSAATDRICSLQEEQQQLREQNELIRERSEKSVEITKQDTKVELETYKQTRQGLDEMYSDVWKQLKEEKKVRLELEKELELQIGMKTEMEIAMKLLEKDTHEKQDTLVALRQQLEEVKAINLQMFHKAQNAESSLQQKNEAITSFEGKTNQVMSSMKQMEERLQHSERARQGAEERSHKLQQELGGRIGALQLQLSQLHEQCSSLEKELKSEKEQRQALQRELQHEKDTSSLLRMELQQVEGLKKELRELQDEKAELQKICEEQEQALQEMGLHLSQSKLKMEDIKEVNQALKGHAWLKDDEATHCRQCEKEFSISRRKHHCRNCGHIFCNTCSSNELALPSYPKPVRVCDSCHTLLLQRCSSTAS [RUFY1]	0.163	49.5	49.8	-0.0933	0.538	1.01
